Experimental data reported in patent publication US20090011497 (published 2009).

Biological target: T1, hu-MPL (human, UniProt P40238)
T1 chain: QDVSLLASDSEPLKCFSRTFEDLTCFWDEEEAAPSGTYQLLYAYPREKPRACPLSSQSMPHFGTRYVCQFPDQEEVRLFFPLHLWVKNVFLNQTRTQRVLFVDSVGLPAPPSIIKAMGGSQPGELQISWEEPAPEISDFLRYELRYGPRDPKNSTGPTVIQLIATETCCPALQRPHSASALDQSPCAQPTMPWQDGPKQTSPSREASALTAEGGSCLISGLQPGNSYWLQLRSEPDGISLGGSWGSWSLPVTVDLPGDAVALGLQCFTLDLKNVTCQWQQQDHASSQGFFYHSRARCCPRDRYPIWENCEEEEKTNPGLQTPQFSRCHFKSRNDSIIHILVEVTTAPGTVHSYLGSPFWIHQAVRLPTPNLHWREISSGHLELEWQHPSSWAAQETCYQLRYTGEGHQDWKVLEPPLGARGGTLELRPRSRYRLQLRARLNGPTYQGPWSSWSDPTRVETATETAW
Assay: SPR

B1: TMP20 (peptide)
chain: YCDEGPTLKQWLVCLGLQ
Kd: 560 pM
